{"source": "IntAct's records for PubMed 25081058", "parents": {"B1": {"name": "Tyrosine-protein phosphatase non-receptor type 18 (Homo sapiens), Q99952-1 (parent)", "chain": "MSRSLDSARSFLERLEARGGREGAVLAGEFSDIQACSAAWKADGVCSTVAGSRPENVRKNRYKDVLPYDQTRVILSLLQEEGHSDYINGNFIRGVDGSLAYIATQGPLPHTLLDFWRLVWEFGVKVILMACREIENGRKRCERYWAQEQEPLQTGLFCITLIKEKWLNEDIMLRTLKVTFQKESRSVYQLQYMSWPDRGVPSSPDHMLAMVEEARRLQGSGPEPLCVHCSAGCGRTGVLCTVDYVRQLLLTQMIPPDFSLFDVVLKMRKQRPAAVQTEEQYRFLYHTVAQMFCSTLQNASPHYQNIKENCAPLYDDALFLRTPQALLAIPRPPGGVLRSISVPGSPGHAMADTYAVVQKRGAPAGAGSGTQTGTGTGTGARSAEEAPLYSKVTPRAQRPGAHAEDARGTLPGRVPADQSPAGSGAYEDVAGGAQTGGLGFNLRIGRPKGPRDPPAEWTRV"}}}
{"variants_of": "B1", "details": "with fbw1a_human BTRC"}
{"variant": "MSRSLDSARSFLERLEARGGREGAVLAGEFSDIQACSAAWKADGVCSTVAGSRPENVRKNRYKDVLPYDQTRVILSLLQEEGHSDYINGNFIRGVDGSLAYIATQGPLPHTLLDFWRLVWEFGVKVILMACREIENGRKRCERYWAQEQEPLQTGLFCITLIKEKWLNEDIMLRTLKVTFQKESRSVYQLQYMSWPDRGVPSSPDHMLAMVEEARRLQGSGPEPLCVHCSAGCGRTGVLCTVDYVRQLLLTQMIPPDFSLFDVVLKMRKQRPAAVQTEEQYRFLYHTVAQMFCSTLQNASPHYQNIKENCAPLYDDALFLRTPQALLAIPRPPGGVLRSISVPGSPGHAMADTYAVVQKRGAPAGAGSGTQTGTGTGTGARSAEEAPLYSKVTPRAQRPGAHAEDARGTLPGRVPADQAPAGSGAYEDVAGGAQTGGLGFNLRIGRPKGPRDPPAEWTRV", "note": "[S419A]", "effect of a mutation on the interaction": "decreasing interaction strength"}
{"variant": "MSRSLDSARSFLERLEARGGREGAVLAGEFSDIQACSAAWKADGVCSTVAGSRPENVRKNRYKDVLPYDQTRVILSLLQEEGHSDYINGNFIRGVDGSLAYIATQGPLPHTLLDFWRLVWEFGVKVILMACREIENGRKRCERYWAQEQEPLQTGLFCITLIKEKWLNEDIMLRTLKVTFQKESRSVYQLQYMSWPDRGVPSSPDHMLAMVEEARRLQGSGPEPLCVHCSAGCGRTGVLCTVDYVRQLLLTQMIPPDFSLFDVVLKMRKQRPAAVQTEEQYRFLYHTVAQMFCSTLQNASPHYQNIKENCAPLYDDALFLRTPQALLAIPRPPGGVLRSISVPGSPGHAMADTYAVVQKRGAPAGAGSGTQTGTGTGTGARSAEEAPLYSKVTPRAQRPGAHAEDARGTLPGRVPADQSPAGAGAYEDVAGGAQTGGLGFNLRIGRPKGPRDPPAEWTRV", "note": "[S423A]", "effect of a mutation on the interaction": "disrupting interaction strength"}
